B1: Bcl-2 homologous antagonist/killer (Homo sapiens), Q16611 (parent)
chain: MASGQGPGPPRQECGEPALPSASEEQVAQDTEEVFRSYVFYRHQQEQEAEGVAAPADPEMVTLPLQPSSTMGQVGRQLAIIGDDINRRYDSEFQTMLQHLQPTAENAYEYFTKIATSLFESGINWGRVVALLGFGYRLALHVYQHGLTGFLGQVTRFVVDFMLHHCIARWIAQRGGWVAALNLGNGPILNVLVVLGVVLLGQFVVRRFFKS
partner: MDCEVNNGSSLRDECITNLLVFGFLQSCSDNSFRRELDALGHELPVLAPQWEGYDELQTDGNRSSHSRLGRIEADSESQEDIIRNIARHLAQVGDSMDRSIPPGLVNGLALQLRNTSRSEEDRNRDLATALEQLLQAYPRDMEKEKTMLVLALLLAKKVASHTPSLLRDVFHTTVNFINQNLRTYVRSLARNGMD

Variants of: B1
Details: with bid_human BID

Row | Variant | effect of a mutation on the interaction
1 | MASGQGPGPPRQECGEPALPSASEEQVAQDTEEVFRSYVFYRHQQEQEAEGVAAPADPEMVTLPLQPSSTMGQVGRQLAIIGDDINRRYDSEFQTMLQHLQPTAENAYEEFTKIATSLFESGINWGRVVALLGFGYRLALHVYQHGLTGFLGQVTRFVVDFMLHHCIARWIAQRGGWVAALNLGNGPILNVLVVLGVVLLGQFVVRRFFKS [Y110E] | increasing interaction
